± gives the uncertainty stated by the source.
B1: Intersectin-2, residues 1129 to 1183; numbered along this chain, Q9NZM3 (parent)
chain: VCQVIAMYDYAANNEDELSFSKGQLINVMNKDDPDWWQGEINGVTGLFPSNYVKM

Variants of: B1
Test: abundance fitness (aPCA) (normalised: wild type 0, dead -1); higher = more abundant; growth selection in yeast, the domain comes from the species named
Settings: Homo sapiens

Row | Variant | abundance fitness
1 | W36P | -1.03 ± 0.11
2 | W36T | 0.011 ± 0.04
3 | W36S | -0.1 ± 0.035
4 | W36A | -0.092 ± 0.048
5 | W36D | -0.323 ± 0.028
6 | W36H | -0.054 ± 0.047
7 | L47W | -0.061 ± 0.033
8 | L47I | -0.183 ± 0.067
9 | L47D | -0.142 ± 0.041
10 | L47T | -0.014 ± 0.043
11 | L47M | -0.128 ± 0.043
12 | L47K | 0.039 ± 0.052
13 | D16G | -0.02 ± 0.033
14 | D16E | -0.011 ± 0.057
15 | D16T | -0.126 ± 0.055
16 | D16K | 0.016 ± 0.035
17 | D16P | -0.075 ± 0.058
18 | D16V | -0.082 ± 0.044
19 | D16A | 0.004 ± 0.041
20 | V4F | -0.004 ± 0.032
21 | V4W | -0.079 ± 0.029
22 | V4G | -0.041 ± 0.034
23 | V4E | -0.405 ± 0.066
24 | V4N | -0.688 ± 0.12

Row | Variant | abundance fitness
25 | V4I | -0.478 ± 0.042
26 | V4R | -0.458 ± 0.036
27 | G23I | -0.866 ± 0.49
28 | G23M | -0.262 ± 0.051
29 | G23T | -0.21 ± 0.048
30 | G23D | -0.016 ± 0.057
31 | G23R | -0.195 ± 0.028
32 | G23S | -0.07 ± 0.031
33 | Y10P | -0.913 ± 0.14
34 | Y10N | -0.249 ± 0.051
35 | Y10E | -0.853 ± 0.1
36 | Y10W | -0.037 ± 0.037
37 | Y10D | -0.777 ± 0.11
38 | Y10H | -0.124 ± 0.078
39 | Y10R | -0.063 ± 0.032
40 | Y10Q | -0.505 ± 0.068
41 | Y10M | -0.256 ± 0.039
42 | Y10T | -0.865 ± 0.08
43 | D33L | -0.077 ± 0.044
44 | D33W | -0.237 ± 0.049
45 | D33C | 0.042 ± 0.06
46 | D33H | 0.103 ± 0.067
47 | D33E | -0.009 ± 0.047
48 | D33P | -0.287 ± 0.064

Row | Variant | abundance fitness
49 | D33N | -0.034 ± 0.039
50 | I41D | -0.624 ± 0.065
51 | I41A | 0.016 ± 0.028
52 | I41P | -1.01 ± 0.088
53 | I41C | -0.148 ± 0.052
54 | I41F | 0.079 ± 0.053
55 | I41L | -0.012 ± 0.037
56 | I41V | -0.055 ± 0.042
57 | D35L | -0.029 ± 0.035
58 | D35R | -0.021 ± 0.031
59 | D35S | -0.035 ± 0.031
60 | D35Y | -0.075 ± 0.042
61 | G46E | -0.973 ± 0.056
62 | G46C | -0.606 ± 0.068
63 | G46F | -0.864 ± 0.27
64 | G46N | -0.483 ± 0.042
65 | G46Q | -0.945 ± 0.082
66 | G46L | -0.701 ± 0.06
67 | G46R | -0.318 ± 0.037
68 | G39K | -0.999 ± 0.091
69 | G39S | -0.937 ± 0.12
70 | G39V | -1.02 ± 0.079
71 | D9Y | -0.371 ± 0.063
72 | D9R | -0.131 ± 0.029

Row | Variant | abundance fitness
73 | D9C | -0.189 ± 0.049
74 | D9Q | -0.133 ± 0.062
75 | D9A | 0.019 ± 0.045
76 | D9P | -0.098 ± 0.059
77 | D9T | -0.084 ± 0.051
78 | D9K | -0.189 ± 0.062
79 | E40G | -0.157 ± 0.036
80 | E40A | -0.055 ± 0.031
81 | E40W | -0.15 ± 0.05
82 | E40R | -0.059 ± 0.04
83 | E40Q | -0.114 ± 0.049
84 | P34L | -0.079 ± 0.03
85 | P34N | 0.036 ± 0.055
86 | P34T | -0.009 ± 0.034
87 | P34A | 0.005 ± 0.04
88 | P34K | 0.055 ± 0.046
89 | P34I | -0.071 ± 0.038
90 | P34D | -0.01 ± 0.062
91 | N14R | 0.007 ± 0.029
92 | N14S | 0.014 ± 0.046
93 | N14Q | -0.01 ± 0.056
94 | N14W | -0.203 ± 0.039
95 | N14C | -0.027 ± 0.061
96 | A11T | -0.041 ± 0.047

Row | Variant | abundance fitness
97 | A11K | 0.013 ± 0.051
98 | A11G | -0.03 ± 0.03
99 | A11E | 0.025 ± 0.052
100 | K31I | 0.029 ± 0.058
101 | K31T | 0.102 ± 0.032
102 | K31Y | -0.103 ± 0.06
103 | K31V | 0.22 ± 0.039
104 | K31C | 0.138 ± 0.041
105 | L25P | -0.126 ± 0.056
106 | L25F | -0.006 ± 0.058
107 | N13V | -0.003 ± 0.033
108 | N13D | -0.033 ± 0.034
109 | N13E | -0.017 ± 0.041
110 | N13I | -0.071 ± 0.05
111 | N13Q | 0.051 ± 0.033
112 | N13H | 0.106 ± 0.057
113 | N13W | -0.306 ± 0.069
114 | A6G | -0.163 ± 0.038
115 | A6C | -0.154 ± 0.036
116 | A6I | -0.988 ± 0.18
117 | A6P | -0.585 ± 0.068
118 | A6T | 0.026 ± 0.047
119 | A6H | -0.923 ± 0.17
120 | A6V | -0.576 ± 0.048

Row | Variant | abundance fitness
121 | Q24S | -0.073 ± 0.045
122 | Q24Y | -0.153 ± 0.051
123 | Q24W | -0.038 ± 0.052
124 | Q24V | -0.078 ± 0.034
125 | Q24G | -0.073 ± 0.037
126 | F20M | -0.26 ± 0.051
127 | F20I | -0.163 ± 0.061
128 | F20A | -0.998 ± 0.11
129 | F20D | -1.03 ± 0.28
130 | N27K | -0.052 ± 0.035
131 | N27Q | 0.012 ± 0.051
132 | N27G | -0.122 ± 0.036
133 | N27T | -0.043 ± 0.055
134 | N27V | -0.098 ± 0.043
135 | N27H | -0.089 ± 0.053
136 | S21W | -0.125 ± 0.053
137 | S21C | -0.053 ± 0.049
138 | S21T | -0.028 ± 0.046
139 | S21I | -0.045 ± 0.074
140 | S21L | -0.037 ± 0.034
141 | S21H | 0.082 ± 0.062
142 | G43V | -0.765 ± 0.045
143 | G43D | -0.044 ± 0.045
144 | G43L | -0.175 ± 0.034

Row | Variant | abundance fitness
145 | G43A | -0.044 ± 0.03
146 | G43E | -0.032 ± 0.037
147 | G43P | -0.908 ± 0.075
148 | W37P | -0.582 ± 0.045
149 | W37R | -0.787 ± 0.058
150 | W37E | -0.928 ± 0.071
151 | W37S | -0.805 ± 0.064
152 | W37N | -0.771 ± 0.12
153 | W37A | -0.857 ± 0.099
154 | M29H | -0.06 ± 0.07
155 | M29A | -0.016 ± 0.036
156 | M29E | -0.006 ± 0.038
157 | M29Y | -0.18 ± 0.089
158 | M29I | -0.036 ± 0.061
159 | M29N | -0.187 ± 0.075
160 | T45D | -0.1 ± 0.056
161 | T45S | -0.003 ± 0.041
162 | T45Q | -0.024 ± 0.064
163 | T45F | -0.051 ± 0.071
164 | T45C | -0.087 ± 0.056
165 | T45K | -0.03 ± 0.04
166 | T45E | -0.053 ± 0.038
167 | D32H | -0.18 ± 0.06

Source: the Human Domainome abundance scans (Beltran et al. 2025)
